Laboratory results taken from PMC3673817.

Target: FLAG-tagged full length EEA1 (Early endosomal autoantigen 1) (human) (UniProt Q15075)
Test: SPR; EEA1-FLAG amine-coupled to a CM5 chip (~2,000 RU), Biacore 2000, 25°C; E2 injected at 2.5 to 160 μM, 20 μL/min, in 10 mM Hepes pH 7.4, 150 mM NaCl, 3 mM EDTA, 0.005% surfactant P20; response plotted against the E2 concentration

Chain of UniProt Q15075 (Q15075 whole entry): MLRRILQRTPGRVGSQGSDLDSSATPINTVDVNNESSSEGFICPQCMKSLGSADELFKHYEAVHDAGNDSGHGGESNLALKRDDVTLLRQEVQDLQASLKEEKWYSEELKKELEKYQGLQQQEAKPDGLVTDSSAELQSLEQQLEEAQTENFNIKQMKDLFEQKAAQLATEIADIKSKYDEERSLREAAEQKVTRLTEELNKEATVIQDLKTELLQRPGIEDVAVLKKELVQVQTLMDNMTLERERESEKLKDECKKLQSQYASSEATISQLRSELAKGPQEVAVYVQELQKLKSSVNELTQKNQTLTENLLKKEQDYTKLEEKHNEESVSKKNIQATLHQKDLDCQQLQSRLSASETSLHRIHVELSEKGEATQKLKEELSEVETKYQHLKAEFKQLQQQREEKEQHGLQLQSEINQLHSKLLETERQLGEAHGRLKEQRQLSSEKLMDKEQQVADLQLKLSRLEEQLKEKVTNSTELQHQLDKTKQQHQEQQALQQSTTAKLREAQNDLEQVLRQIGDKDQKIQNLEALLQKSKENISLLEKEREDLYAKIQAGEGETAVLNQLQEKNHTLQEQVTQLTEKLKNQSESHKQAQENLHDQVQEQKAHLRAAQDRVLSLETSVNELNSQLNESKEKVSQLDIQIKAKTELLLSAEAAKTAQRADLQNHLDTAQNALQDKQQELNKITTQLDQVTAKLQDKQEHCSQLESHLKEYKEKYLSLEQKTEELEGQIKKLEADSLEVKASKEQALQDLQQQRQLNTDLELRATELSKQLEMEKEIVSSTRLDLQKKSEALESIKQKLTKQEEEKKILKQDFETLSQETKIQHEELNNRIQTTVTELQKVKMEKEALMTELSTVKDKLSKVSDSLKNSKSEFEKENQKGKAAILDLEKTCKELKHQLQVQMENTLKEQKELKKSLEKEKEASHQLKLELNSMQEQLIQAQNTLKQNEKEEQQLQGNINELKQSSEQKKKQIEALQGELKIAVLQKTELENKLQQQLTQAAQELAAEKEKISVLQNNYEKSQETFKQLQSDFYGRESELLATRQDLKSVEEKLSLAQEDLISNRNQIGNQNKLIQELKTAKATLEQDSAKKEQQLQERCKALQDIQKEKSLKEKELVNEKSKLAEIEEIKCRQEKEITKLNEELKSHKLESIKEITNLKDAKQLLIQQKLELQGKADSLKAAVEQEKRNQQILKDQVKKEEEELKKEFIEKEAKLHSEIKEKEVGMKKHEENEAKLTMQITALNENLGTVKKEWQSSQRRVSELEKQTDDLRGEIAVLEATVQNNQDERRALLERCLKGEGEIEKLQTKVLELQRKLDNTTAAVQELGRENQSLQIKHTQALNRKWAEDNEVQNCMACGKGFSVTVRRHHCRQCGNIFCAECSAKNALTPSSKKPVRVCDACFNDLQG

- Kd: 9.7 µM
Substance: Ube2A (HR6a) (from UniProt P49459 1-152) (enzyme; other documents disagree on this pair)
